One data set has as its system AR42J tumor. The note with it: low-dose (16.8 ± 1.3 MBq) and high-dose (33.1 ± 3.7 MBq); AR42J tumor-bearing mice.
A short description of another data set: in vivo. As to conditions: male, athymic nu/nu, mouse, iv, 0.3 nmol, total radioactivity.

Protocol for AR42J tumor: Athymic male nu/nu mice (Tachonic), 6–8 weeks old, were used in all studies. Tumor models were established by inoculating 5 × 10^6 rat pancreatic tumor AR42J cells (American Type Culture Collection) with high SSTR2 expression into the right hind flank of the animals. After 3 weeks, the tumor size reached approximately 200 mm^3. All animal experiments were carried out following Institutional Animal Care and Use Committee-approved protocol.
Toxicity and therapeutic efficacy were investigated in 18 animals (n = 6/cohort): control, low-dose (cumulative 16.8 ± 1.3 MBq), and high-dose (cumulative 33.1 ± 3.7 MBq) cohorts. Treatment started 23 days after xenograft inoculation. Control mice received in total 4 × 0.3 nmol DOTATATE on two consecutive days. Two injections of 0.3 nmol DOTATATE per day were given, with a time interval of at least 6 h. […] The high-dose cohort received four doses on two consecutive days, twice a day with a time interval of at least 6 h. […] Animals were monitored for 30 days starting on the day of treatment. Tumors were measured by caliper, and animals were weighed at least twice weekly. The endpoints chosen were weight loss >15% and tumor volume >2000 mm^3. […]

As usually defined, the tissue uptake is the percentage of the injected dose found per gram of tissue. `C[C@@H](O)[C@H](NC(=O)[C@@H]1CSSC[C@H](NC(=O)[C@@H](Cc2ccccc2)NC(=O)CN2CCN(CC(=O)O)CCN(CC(=O)O)CCN(CC(=O)O)CC2)C(=O)N[C@@H](Cc2ccc(O)cc2)C(=O)N[C@H](Cc2c[nH]c3ccccc23)C(=O)N[C@@H](CCCCN)C(=O)N[C@@H]([C@@H](C)O)C(=O)N1)C(=O)O` [^213Bi-DOTATATE, metal not drawn]: the tumor volume entry in the data set on AR42J tumor was “significantly decreased”. Besides, the tissue uptake at 1 h in the data set “in vivo” (Renal activity) was determined as 17.4 ± 2.2 %ID/g. In “in vivo” (Tumor uptake), the tissue uptake at 10 min was found to be 5.3 ± 2.8 %ID/g and the tissue uptake at 1 h was 6.5 ± 2.3 %ID/g.

These data come from publication PMC5118228 (EJNMMI Research, 2016).
